Results taken from US20260098102A1 (NATIONAL UNIVERSITY CORPORATION KOBE UNIVERSITY, published 2026).

T1: mouse SIRPA_129 (mouse (129), UniProt P97797 32-513)
T1 construct: FLAG-tagged (pFLAG V5-DEST), on 293α cells; also called 129sv
T1 chain: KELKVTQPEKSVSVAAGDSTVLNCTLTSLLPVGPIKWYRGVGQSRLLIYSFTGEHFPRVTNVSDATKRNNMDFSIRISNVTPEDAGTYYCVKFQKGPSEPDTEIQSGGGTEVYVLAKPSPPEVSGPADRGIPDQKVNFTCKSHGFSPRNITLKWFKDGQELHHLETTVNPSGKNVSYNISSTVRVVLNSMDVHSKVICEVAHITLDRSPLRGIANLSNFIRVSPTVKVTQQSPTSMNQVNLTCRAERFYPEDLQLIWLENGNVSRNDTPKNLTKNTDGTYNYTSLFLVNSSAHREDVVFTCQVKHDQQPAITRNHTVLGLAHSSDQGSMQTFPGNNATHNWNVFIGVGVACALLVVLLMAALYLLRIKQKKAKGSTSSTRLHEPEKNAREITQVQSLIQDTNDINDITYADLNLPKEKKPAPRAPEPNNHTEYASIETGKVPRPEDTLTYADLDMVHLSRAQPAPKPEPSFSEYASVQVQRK

T2: monkey SIRPA protein (cynomolgus monkey, UniProt P78324 31-504 (human entry))
T2 construct: Expressed on 293α cells from pcDNA3.2 V5-DEST or pFLAG V5-DEST vectors; also called cynomolgus monkey SIRPA; cSIRPA
T2 chain: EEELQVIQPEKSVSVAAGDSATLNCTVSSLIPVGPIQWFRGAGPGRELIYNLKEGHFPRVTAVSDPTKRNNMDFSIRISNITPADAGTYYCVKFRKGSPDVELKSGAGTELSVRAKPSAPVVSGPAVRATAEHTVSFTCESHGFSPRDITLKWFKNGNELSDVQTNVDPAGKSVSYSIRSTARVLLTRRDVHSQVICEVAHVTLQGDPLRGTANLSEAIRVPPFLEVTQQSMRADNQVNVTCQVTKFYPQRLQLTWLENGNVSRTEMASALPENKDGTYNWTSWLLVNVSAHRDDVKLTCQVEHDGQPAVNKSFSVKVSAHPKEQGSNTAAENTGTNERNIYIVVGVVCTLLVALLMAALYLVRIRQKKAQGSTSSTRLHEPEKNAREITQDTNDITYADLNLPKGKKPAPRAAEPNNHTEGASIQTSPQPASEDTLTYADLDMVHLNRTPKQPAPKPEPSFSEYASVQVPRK


Experiments:
human SIRPA_V9 = biological target: T3, human SIRPA_V9 (human, UniProt P78324 31-504); assay: cell-based ELISA on 293α cells expressing FLAG-tagged SIRPA_V9; Abs 490 normalized to FLAG tag [i]
T3 construct: FLAG-tagged (pFLAG V5-DEST), on 293α cells; also called human SIRPA Variant 9
Method: (§1) The 293a cells, described in Example 1)-6, were prepared at 5× 10⁵ cells/mL in a 10% FBS-containing DMEM medium. pFLAG V5-DEST-SIRPA_V1-V10, pFLAG V5-DEST-monkey SIRPA, pFLAG V5-DEST-mouse SIRPA, or pFLAG V5-DEST was introduced into the cells using Lipofectamine LTX (Invitrogen), and 100 μL each was aliquoted to a 96-well plate (Corning Incorporated) and cultured overnight in a 10% FBS-containing DMEM medium at 37° C. under a 5% CO₂ condition. The obtained introduced cells were used for cell-based ELISA in a state that they adhered. After the culture supernatant was removed, 50 μL per well of hD13_HIL3, hD13_HIL4h, hD13_H2L2, hD13_H2L3, or cD13 prepared in Examples 6 and 7 or a control antibody was added to each of various SIRPA genes-introduced cells at a final concentration of 0 to 10,000 ng/ml, and the mixture was allowed to stand at 4° C. for one hour. Thereafter, binding to human SIRPA was evaluated in the same manner as in Example 5-1.

mouse SIRPA_129 = biological target: T1, mouse SIRPA_129; assay: cell-based ELISA on 293α cells expressing FLAG-tagged mouse SIRPA (129sv); Abs 490 normalized to FLAG tag [iii]
Method: as §1

monkey SIRPA protein = biological target: T2, monkey SIRPA protein; assay: blocking cell-based ELISA: peroxidase-labeled CD47-Fc (1 µg/mL) on 293α cells expressing monkey SIRPA; y axis = CD47-Fc signal relative to no antibody (100)
Method: After the culture supernatant of human SIRPA or monkey SIRPA expression vector-introduced 293α cells prepared in Example 8)-1 was removed, 50 μL per well of hD13_HIL3, hD13_HIL4h, hD13_H2L2, or hD13_H2L3 diluted with 5% FBS-containing PBS to a final concentration of 0 to 10,000 ng/ml was added to each of pcDNA3.2 V5-DEST-SIRPA_V1, pcDNA3.2 V5-DEST-SIRPA_V2, pcDNA3.2 V5-DEST-monkey SIRPA, and pcDNA3.2 V5-DEST-introduced 293α cells, immediately followed by addition of peroxidase-labeled CD47-Fc prepared with 5% FBS-containing PBS at 1 μg/mL, and the mixture was allowed to stand at 4° C. for one hour. Thereafter, the SIRPA-CD47 binding inhibitory activity was evaluated in the same manner as in 1)-6-3.

EC50 (read off the curve) (human SIRPA_V9) [µg/mL]	binding result (mouse SIRPA_129)	IC50 (read off the curve) (monkey SIRPA protein) [µg/mL]	Binder
~0.04	no binding (tested: 10000 ng/mL)	~0.6	humanized anti-SIRPA antibody hD13_H1L3 (antibody, human IgG4 S228P, kappa, F234A L235A, V domains shown, hH1 heavy chain (IgG4proFALA) and hL3 kappa light chain; also called hD13_HIL3; HIL3 antibody) VH: QVQLVESGGGVVQPGRSLRLSCAASGFTFSDYGMIWVRQAPGKGLEWVASISSSSSYIYYADSVKGRFTISRDNSKNRLYLQMNSLRAEDTAVYYCARRYYGFNYPFDYWGQGTMVTVSS VL: DTQLTQSPSSLSASVGQRVTITCGASKSVRTYMHWYQQKPGKQPKLLIYSASNLEAGVPSRFSGSGSGTDFTLTISSLQPEDFATYYCQQSNEPPYTFGQGTKLEIKR
~0.04	no binding (tested: 10000 ng/mL)	~1	humanized anti-SIRPA antibody hD13_H1L4 (antibody, human IgG4 S228P, kappa, F234A L235A, V domains shown, hH1 heavy chain (IgG4proFALA) and hL4 kappa light chain; also called hD13_HIL4; hD13_HIL4h) VH: QVQLVESGGGVVQPGRSLRLSCAASGFTFSDYGMIWVRQAPGKGLEWVASISSSSSYIYYADSVKGRFTISRDNSKNRLYLQMNSLRAEDTAVYYCARRYYGFNYPFDYWGQGTMVTVSS VL: DTVLTQSPDSLAVSLGQRATINCGASKSVRTYMHWYQQKPGQQPKLLIYSASNLEAGVPSRFSGSGSGTDFTLTISSLQAEDVAVYYCQQSNEPPYTFGQGTKVEIKR
~0.04	no binding (tested: 10000 ng/mL)	~0.9	humanized anti-SIRPA antibody hD13_H2L2 (antibody, human IgG4 S228P, kappa, F234A L235A, V domains shown, hH2 heavy chain (IgG4proFALA) and hL2 kappa light chain; also called H2L2 antibody) VH: EVQLVESGGGVVQPGRSLRLSCAASGFTFSDYGMIWVRQAPGKGLEWVASISSSSSYIYYADSVKGRFTISRDNSKNTLYLQMNSLRAEDTAVYYCARRYYGFNYPFDYWGQGTMVTVSS VL: AIQLTQSPSSLSASVGQRVTITCGASKSVRTYMHWYQQKPGKAPKLLIYSASNLEAGVPSRFSGSGSGTDFTLTISSLQPEDFATYYCQQSNEPPYTFGQGTKLEIKR
~0.04	no binding (tested: 10000 ng/mL)	~0.8	humanized anti-SIRPA antibody hD13_H2L3 (antibody, human IgG4 S228P, kappa, F234A L235A, V domains shown, hH2 heavy chain (IgG4proFALA) and hL3 kappa light chain; also called H2L3 antibody) VH: EVQLVESGGGVVQPGRSLRLSCAASGFTFSDYGMIWVRQAPGKGLEWVASISSSSSYIYYADSVKGRFTISRDNSKNTLYLQMNSLRAEDTAVYYCARRYYGFNYPFDYWGQGTMVTVSS VL: DTQLTQSPSSLSASVGQRVTITCGASKSVRTYMHWYQQKPGKQPKLLIYSASNLEAGVPSRFSGSGSGTDFTLTISSLQPEDFATYYCQQSNEPPYTFGQGTKLEIKR
~0.04	no binding (tested: 10000 ng/mL)	~0.9	human chimeric anti-SIRPA antibody cD13 (antibody, human IgG4 S228P, kappa, F234A L235A, V domains shown, Human IgG4proFALA heavy chain, human kappa light chain; also called cD13 (IgG4pf); human chimeric antibody D13) VH: EVQLVESGGGLVQPGRSLKLSCLASGFTFSDYGMIWVRQAPGKGLEWVASISSSSSYIYYADTVKGRFTISRENAKNTLFLHMTSLRSEDTALYYCARRYYGFNYPFDYWGQGVMVTVSS VL: DTVLTQSPALAVSLGQRVTISCGASKSVRTYMHWYQQKSGQQPKLLIYSASNLEAGVPSRFSGSGSGTDFTLTIDPVEADDIANYYCQQSNEPPYTFGAGTKLELKR
